Test results as given in paper PMC11531485, “Examining prestructured β-actin peptides as substrates of histidine methyltransferase SETD3” (Scientific Reports, 2024).
Positions of bridges follow the written chain, without caps; N, C: chain ends. No end group written: not given here.

Columns and labels:
[1] = target: T1, human SETD3 histidine methyltransferase (human, UniProt Q86TU7 1-594); assay: ITC; βA peptides (700-850 µM) titrated into SETD3 (30 µM) preincubated with SAH (350 µM) for 1 h; 20 mM Tris, 200 mM NaCl, pH 8.0; MicroCal PEAQ-ITC; One Set of Sites model; settings: both partners purified
T1 construct: SETD3, human; In the ITC SETD3 was preincubated with SAH; also called recombinant human SETD3; source: E. coli BL21(DE3), purified (HisTrap FF, dialysis)
T1 sequence (looked up): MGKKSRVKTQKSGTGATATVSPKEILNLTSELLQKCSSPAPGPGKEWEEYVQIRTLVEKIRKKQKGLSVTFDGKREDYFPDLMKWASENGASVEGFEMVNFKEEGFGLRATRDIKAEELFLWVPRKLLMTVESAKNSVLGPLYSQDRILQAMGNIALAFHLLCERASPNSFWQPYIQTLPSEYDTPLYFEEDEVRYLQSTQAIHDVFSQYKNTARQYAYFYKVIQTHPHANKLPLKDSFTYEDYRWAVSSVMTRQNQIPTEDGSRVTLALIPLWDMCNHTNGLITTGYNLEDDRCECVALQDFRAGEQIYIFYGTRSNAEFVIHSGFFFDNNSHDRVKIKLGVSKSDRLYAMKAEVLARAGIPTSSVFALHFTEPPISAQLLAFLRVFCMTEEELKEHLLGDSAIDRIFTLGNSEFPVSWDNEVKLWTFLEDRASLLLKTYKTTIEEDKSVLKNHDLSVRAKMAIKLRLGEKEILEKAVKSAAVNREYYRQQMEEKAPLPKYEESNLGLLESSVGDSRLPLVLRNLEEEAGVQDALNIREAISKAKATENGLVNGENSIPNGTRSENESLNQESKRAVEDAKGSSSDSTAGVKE

[2] = target: T1, human SETD3 histidine methyltransferase; assay: cell-based or functional assay
[3] = target: T1, human SETD3 histidine methyltransferase; assay: cell-based or functional assay; remark: listed apart in the source

TLKYPIEHGKVTNWDD-NH2 (lactam 7-10) [stapled βA peptide 9 (cyclic lactam, Glu72-Lys75)]
Kd [1]: 24 µM
IC50 of inhibition of SETD3-catalysed methylation of the βA-H73 peptide, MALDI-TOF MS single point assay (10 and 100 µM peptide, 360 nM SETD3, 100 µM SAM) [2]: > 100 µM

TLKYPIEHGIVTNWDD-NH2 [linear β-actin peptide (βA-H73, natural sequence)]
kcat of SETD3-catalysed methylation, MALDI-TOF MS steady-state kinetics (200 nM SETD3, 100 µM SAM, pH 9.0, 37 °C) [3]: 148 min^-1
kcat/Km of SETD3-catalysed methylation, MALDI-TOF MS steady-state kinetics (200 nM SETD3, 100 µM SAM, pH 9.0, 37 °C) [3]: 5.78 µM^-1min^-1
Kd [1]: 2.46 µM
